This passage reports Kd results from PMC10936184.

pKd: −log10 of the molar value.

In this assay the target is MipA-His6 (Pseudomonas aeruginosa). The experiment in a line: nano-DSF; isothermal analysis with FoldAffinity: MipA-His6 (5 µM) incubated for 2 h at room temperature with PMB or PME from 76 nM up to 2.5 mM; one site model; fits at 51°C, 52°C and 53°C. (DSF heats the sample and reads unfolding from a dye or from intrinsic fluorescence.)

With polymyxin B (peptide), the pKd is 5.00 to 5.08.

On to polymyxin E (peptide), for which the pKd is 5.47 to 5.55.

The pKd is the Kd on a negative log10 scale, so that one unit is a factor of ten. A higher pKd goes with a small Kd.
